In PMC5460288, “In vitro assembly of the Rous Sarcoma Virus capsid protein into hexamer tubes at physiological temperature” (Scientific Reports, 2017):

B1: Rous Sarcoma Virus capsid protein (RSV CA), wild type (natural protein)
chain: PVVIKTEGPAWTPLEPKLITRLADTVRTKGLRSPITMAEVEALMSSPLLPHDVTNLMRVILGPAPYALWMDAWGVQLQTVIAAATRDPRHPANGQGRGERTNLNRLKGLADGMVGNPQGQAALLRPGELVAITASALQAFREVARLAEPAGPWADIMQGPSESFVDFANRLIKAVEGSDLPPSARAPVIIDCFRQKSQPDIQQLIRTAPSTLTTPGEIIKYVLDRQKTAPLTDQGIA
notes: capsid protein (CA), the cut product of the Gag polyprotein of Rous sarcoma virus strain Prague C; the naturally occurring species denoted CA (without spacer peptide residues); also called wild type RSV CA; full length RSV CA; not shown: Mycobacterium xenopi GyrA intein (modified), C-terminal, cleaved

Assays:
[1] = target: RSV CA carrying the C-terminal spacer peptide (CA-SP, CA + 12) (Rous Sarcoma Virus (strain Prague C)); test: cryo-EM structure; iterative real space helical reconstruction (SPRING) of one single-layered CA-SP tube, local C6 symmetrization of the turrets, 24 Å (FSC 0.143)
[2] = target: the molecule itself; test: negative-stain transmission electron microscopy; 600–700 μM protein dialyzed 16–24 h (overnight) at 37 °C against neutral pH (pH 7) buffer with 25–150 mM NaCl; uranyl acetate stain

Molecule | stoichiometry N [1] | stoichiometry N [2]
RSV CA carrying the C-terminal spacer peptide (CA-SP, CA + 12) (natural protein) | 6 | –
B1 | – | 6
